Data from patent US20240115683A1 (ULTRAGENYX PHARMACEUTICAL, published 2024).

Target: T1, human FGF23 (fibroblast growth factor 23) (human, UniProt Q9GZV9 25-251)
T1 construct: In the total FGF23 ECLA the FGF23 was recombinant human FGF23 (standards) and endogenous FGF23 in patient serum (samples); It may include the signal peptide; also called recombinant human FGF23; rhFGF23
T1 sequence: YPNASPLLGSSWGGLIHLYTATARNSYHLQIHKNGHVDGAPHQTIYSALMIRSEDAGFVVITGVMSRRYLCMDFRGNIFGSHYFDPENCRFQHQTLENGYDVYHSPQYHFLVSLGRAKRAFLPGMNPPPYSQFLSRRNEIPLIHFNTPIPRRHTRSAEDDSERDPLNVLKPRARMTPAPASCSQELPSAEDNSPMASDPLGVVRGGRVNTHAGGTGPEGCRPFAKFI
Experiment: total FGF23 ECLA; rhFGF23 standards and serum samples incubated with excess KRN23, complex detected
Description: The mean values of serum total intact FGF23 levels at Baseline were recorded. The total FGF23 ECLA assay measures endogenous FGF23 in the presence of KRN23, whether complexed or unbound in serum. Standards (recombinant human FGF23 [rhFGF23]) and samples are incubated with excess amounts of KRN23 in a buffer matrix then detected by the assay. The assay measures the KRN23/FGF23 complex, which represents all endogenous FGF23 in the sample.

- binding result: binds
B1: KRN23 (antibody, human IgG1, kappa, V domains shown)
VH: QVQLVQSGAEVKKPGASVKVSCKASGYTFTNHYMHWVRQAPGQGLEWMGIINPISGSTSNAQKFQGRVTMTRDTSTSTVYMELSSLRSEDTAVYYCARDIVDAFDFWGQGTMVTVSS
VL: AIQLTQSPSSLSASVGDRVTITCRASQGISSALVWYQQKPGKAPKLLIYDASSLESGVPSRFSGSGSGTDFTLTISSLQPEDFATYYCQQFNDYFTFGPGTKVDIKR
notes: also called anti-FGF23 antibody KRN23; recombinant fully human monoclonal IgG1 antibody
